T1: FlK (fluoroacetyl-CoA thioesterase; WtFlK) (Streptantibioticus cattleyicolor, UniProt Q1EMV2)
T1 sequence (Q1EMV2 1-139): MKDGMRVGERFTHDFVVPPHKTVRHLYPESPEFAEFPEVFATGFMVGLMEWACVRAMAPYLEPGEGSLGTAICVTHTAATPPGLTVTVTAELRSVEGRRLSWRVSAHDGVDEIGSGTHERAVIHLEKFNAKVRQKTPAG

B1: wild-type FlK (fluoroacetyl-CoA thioesterase FlK) (enzyme, Streptomyces cattleya)
chain: MKDGMRVGERFTHDFVVPPHKTVRHLYPESPEFAEFPEVFATGFMVGLMEWACVRAMAPYLEPGEGSLGTAICVTHTAATPPGLTVTVTAELRSVEGRRLSWRVSAHDGVDEIGSGTHERAVIHLEKFNAKVRQKTPAG
B2: FlK T42A mutant (enzyme, Streptomyces cattleya)
chain: MKDGMRVGERFTHDFVVPPHKTVRHLYPESPEFAEFPEVFAAGFMVGLMEWACVRAMAPYLEPGEGSLGTAICVTHTAATPPGLTVTVTAELRSVEGRRLSWRVSAHDGVDEIGSGTHERAVIHLEKFNAKVRQKTPAG
B3: FlK T42S mutant (enzyme, Streptomyces cattleya)
chain: MKDGMRVGERFTHDFVVPPHKTVRHLYPESPEFAEFPEVFASGFMVGLMEWACVRAMAPYLEPGEGSLGTAICVTHTAATPPGLTVTVTAELRSVEGRRLSWRVSAHDGVDEIGSGTHERAVIHLEKFNAKVRQKTPAG
B4: selenomethionine-labelled wild-type FlK (enzyme, Streptomyces cattleya)
chain: MKDGMRVGERFTHDFVVPPHKTVRHLYPESPEFAEFPEVFATGFMVGLMEWACVRAMAPYLEPGEGSLGTAICVTHTAATPPGLTVTVTAELRSVEGRRLSWRVSAHDGVDEIGSGTHERAVIHLEKFNAKVRQKTPAG
modifications: L-selenomethionine incorporated
B5: FlK E50A mutant (enzyme, Streptomyces cattleya)
chain: MKDGMRVGERFTHDFVVPPHKTVRHLYPESPEFAEFPEVFATGFMVGLMAWACVRAMAPYLEPGEGSLGTAICVTHTAATPPGLTVTVTAELRSVEGRRLSWRVSAHDGVDEIGSGTHERAVIHLEKFNAKVRQKTPAG

How the values were obtained:
[1] = biological target: T1, FlK (fluoroacetyl-CoA thioesterase; WtFlK); experiment: X-ray crystal structure of complex; format: binding; settings: 10 mM FAcCPan, 100 mM CHES pH 9.5, 0.8 M trisodium citrate; active site
[2] = biological target: the molecule itself; experiment: SEC
[3] = biological target: the molecule itself; experiment: crystal structure
[4] = biological target: the molecule itself; experiment: crystal structure; remark: listed apart in the source

Row | Molecule | X-ray crystal structure of complex [1] | stoichiometry N [2] | stoichiometry N [3] | stoichiometry N [4]
1 | CC(C)(CO)[C@@H](O)C(=O)NCCC(=O)NCCCC(=O)CF [FAcCPan] | WtFlK in complex with two analogues of fluoroacetyl-pantetheine, FAcCPan, and FAcOPan |  |  | 
2 | B1 |  | 2 | 4 | 
3 | B2 |  | 2 |  | 4
4 | B3 |  | 2 |  | 4
5 | B4 |  |  |  | 2
6 | B5 |  | 2 |  | 

From publication PMC2903362 (The Journal of Biological Chemistry, 2010)
